Measurements as given in paper PMC3991700.

The sequences below were run against T1, FilR1 (Methanosaeta harundinacea 6Ac) (UniProt G7WMP6) (assay: EMSA). Conditions: EMSA: 10 mM Tris-HCl pH 8.0, 50 mM KCl, 10 mM MgCl2, 1 mM DTT, 2.5% glycerol, 1% NP-40, 0.5 mM EDTA, 1 ug/uL poly dI-dC, 10 fmol (0.5 nM) biotin probe, 20 uL ….
T1 sequence: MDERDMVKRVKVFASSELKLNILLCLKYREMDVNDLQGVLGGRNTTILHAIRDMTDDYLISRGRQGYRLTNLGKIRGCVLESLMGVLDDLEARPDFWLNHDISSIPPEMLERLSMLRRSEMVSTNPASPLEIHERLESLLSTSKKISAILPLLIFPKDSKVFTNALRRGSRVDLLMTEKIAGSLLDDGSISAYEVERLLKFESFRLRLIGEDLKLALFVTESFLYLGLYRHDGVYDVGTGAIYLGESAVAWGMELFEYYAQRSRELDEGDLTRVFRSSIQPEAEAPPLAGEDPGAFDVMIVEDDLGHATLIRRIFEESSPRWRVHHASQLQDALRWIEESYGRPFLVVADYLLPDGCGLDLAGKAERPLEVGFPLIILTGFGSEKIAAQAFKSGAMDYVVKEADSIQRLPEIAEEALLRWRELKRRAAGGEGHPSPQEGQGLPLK
In the case of “AAACCGCCCTCCTCTCCAGCCTCTCACCATTTCAACCTGGCGGATTGAGTTCAATCTAAATGGATTTTTATCAATTTAATTGGATATCCTCCCATCAAAACATAATCGGTAATTTTTAGCATTAAATCACCGTCACGATTTCACAAACTTAAATGTATATGTGTTCTAATCAATAAACTAAACAATAATATTCTCATTATACTAGTTGCCAATCCGAAAGGGTTTTATCTTCTACATGCGACTACCGAGCAAACCAGAGTACAGAAGGAGGTCAAGC (double strand) [cdhBEA promoter]”, the binding is reported as “no binding”. With “AACCCCCATAAATGATAGATCCGAAAGTAATTAAATAAATCGGTCGGTCTTCGGCCGCGGGTGGAACCAGAGGATCCCATCAGCTATGAGGGGGATCGTCAGGTGGACCGCCCTTTGAAGGATCATCCATCTCCTGAGACCTCCAGACCCCGGCGAGATGGCCGTTAGTCTCCATAAGCTCTCTCCAGCTGCCGGATTCGACAAATCGCCCCCTCTCCAGGACCTGGATCATTACCGAGGAGAGGTTTTGCCC (double strand) [Pomp]” the binding was “binds”. In the case of “AACGGGTTCCATCTCGATATGATCAAGGGGTGGGGGGTTTATTAATAGGTTGAGGTCCCCCTCTCGAGGCCCGGAAAGGGCAAGAGATCCCCCGATAGATTTTTATCGACCGCATATTATCGAATTTTCCCCCGGCAGAGAGGCGGAGGCTTTATACCATTTTGGCATATCGAGGGTGAGTGGGTGAATCGGCATGGCGGAG (double strand) [Pacs1]”, the binding is reported as “binds”. With “AATCCACCTAAACTCACCCATATTATGCCAGTTTGAAGCCTTTTAGGACCGACCGCATCACTGCTTAGCGGTAGTGATGCTAATCGATTTTCTCATAAACCTTTTATATCAGTACCTTGTGTTTAGCTCTTACGGCTAATGGAGGTAAAAAATGAGCGGCGAATTGGTG (double strand) [fpo promoter]” the binding was “no binding”. With “ACCCGTTTGACCATATCCCTTTCGTCCATGTTGAGGTCCCCCTCATTTTAAGGGCCTAAATGGCGTAGATCCACGAAAGCCGGGAGCGATTCGCGATCCGACGGAACAACTCCCCAGTTATCGGCTTGATATCAGCCTCCACCCTCCAATTTCGCGAGCCCATCTCCTCGGCTTGAGTTTTTTCCTTGATTTCGCCGTATAAGTAGCTTCCGACGATCCCGATGCTGATAGAAGCTCTGAAGTTCTCATCGTACCG (double strand) [PfilR1 (filR1 promoter)]” the binding was “binds”. “AGATGAAACCAGAATTATCGTTGAAGATCCCTCCCTCCGAAGATCTCCGATGGATCTCATCGATGGAACCATCTGAGGAGGCGGATCGTCGTCACCGGTTCCCCACCCGCGATGGACAATTATTCGTTATACTCGGAGGGTTATCTTCATAAACCACGGACGGATGACAGTAAGGCAGGTGCGAGGCCTTCATCACCCAGTGGACGGAGAGACAATCTCGTTTTGGAGGAGGTTGAAAGGAAG (double strand) [PfilI-R2 (filI-filR2 promoter)]” was tested, and the binding was “binds”. For “CCATCCCTCTCCCTCAAGATATAGGAGGGAAAAGGTGGACGCTCACTTGGCGAGCGTCACCTTCTCGATGGTAACCTTGGCGTCCTTGAGGATCAGCTTGATCCCGCCCGCTCCGCCCGCCGACATGGCAAAGGCGGGGGCAGCTCCTGCCGCCGGGGCTGCTGCTGCGGCCGGAGCCGCCGCGGCAGGTGCTCCAGGTTCCTTCGACTTCAGCTTCAGTGACAGTTTCTTGGCCATTCCTATAACCTCCTACACCCTCAAATACAGAGATACTATAAATTC (double strand) [cdhCD promoter]”, the binding was “no binding”. “CCATTAGGAGCCGTCGATTCAGCTGTTTTTGATTTTCAGGATTTATACCCGGCCGATATTCCATATTTTGGAATCTATAATGATTAAAAGGCCACTAACCTTATTAATCATGAAGATTACTAATCGACATGGTCCAGTCGAGCGTTCTCTATAGACAAACGGAGAGAATGCGTGGCAGATTCTGGTTTGAAATCTCCGTATTGGAGCTGGTATCTGCCCGGGGATCTGGGGAGAGAAGAGTGCAAAATATTCGATCTTTGATTAAGGAGGGTTGAAATTGGCT (double strand) [Pacs4]” was tested, and the binding was “binds”. For “GCTAACCATGTCCATTTGCTCTCCTCCTTTTTAATTCTTGCCAAATCATAGTAATCTATGAAAAATTTGGCCAGTAACGTACTGACTATCGGTTACTGGACTTATAAAGCTTTCGAAATGGAAATGAAAGCCCCATTTTTGTTTTTTGTCCCGGTTTTAGTGAGCCCGAAAGATCTGAAATCCCCAAATAAAAGCCTGAAATATAAAAAAAACAAGGAAGAACAGTTTGGGGCGAA (double strand) [Pmtr]”, the binding was “binds”. “GGTCGGAGAGGCTGAGGGCGATCCCCGTCGTCGTCCTCACCACCTCCACCAGCGACGACGACCTCCGGCGGGCCTACTCCAACCACGTCAACAGCTACCTCATCAAGCCCCTCAGCTTCGAGGACCTGAAGCGGACCGTCGAGGAGATCAAAGAGTACTGGCTTGGATGGAACCGCTCCCCCGGACCCGCGTGAAAGACCCCAGAGGTGAGCGAAACCGAGGCCTTCACCCATGACGCTGCGCC (double strand) [UfilI (internal fragment of filI)]” was tested, and the binding was “no binding”.
